Test results published in patent publication US12258605B2, “Alkane oxidation by modified hydroxylases” (The California Institute of Technology, priority 2005, dated 2025).
Entries after “also recorded” stand apart in the source; their conditions may differ.

Test: Reactions on laurate
Format: biochemical
Settings: laurate 2 mM, 5 hours, room temperature
Protocol: Reactions on laurate. P450PMO activity on laurate was tested mixing the substrate (2 mM) with purified protein (up to 0.5 μM) in 100 mM KPi pH 8.0 buffer, and adding NADPH to final concentration of 1 mM. Reaction mixtures were incubated for 5 hours at room temperature under gentle stirring. Analysis of the hydroxylated products was carried out by derivatization with N-methyl-N-trimethylsilylheptafluorobutyramide (Aldrich) followed by GC analysis according to a published procedure. A control experiment was carried out using wild-type P450BM3.
Products from alkane reactions were identified and quantified by gas chromatography using authentic standards and calibration curves with internal standards. For the reactions with alkanes from pentane to decane, GC analyses were carried out using a Shimadzu GC-17A gas chromatograph, Agilent HP5 column (30 m×0.32 mm×0.1 μm film), 1 μL injection, FID detector, and the following separation program: 250° C. inlet, 250° C. detector, 50° C. oven for 3 min, 5° C./min gradient to 100° C., 25° C./min gradient to 230° C., and 230° C. for 3 min. […] Organic solutions were analyzed by FID-GC. […]

B1: P450PMO: P450 BM-3 variant, SEQ ID NO:125; 7-7 plus G443A and D698G; propane monooxygenase (protein)
chain: TIKEMPQPKTFGELKNLPLLNTDKPVQALMKIADELGEIFKFEAPGCVTRYISSQRLIKEACDESRFDKNLSQELKFFRDFGGDGLFTSWTHEINWKKAHNILLPSFSQQAMKGYHAMMVDIAVQLVQKWERLNADEHIEVSEDMTRLTLDTIGLCGFNYRFNSFYRDQPHPFIISMVRALDEVMNKPQRANPDDPAYDENKRQCQEDIKVMNDLVDKIIADRKARGEQSDDLLTQMLNGKDPETGEPLDDGNISYQIITFLIAGHETTSGLLSFALYFLVKNPHVLQKVVEEAARVLVDPVPSYKQVKQLKYVGMVLNEALRLWPTFPAFSLYAKEDTVLGGEYPLEKGDEVMVLIPQLHRDKTVWGDDVEEFRPERFENPSAIPQHAFKPFGNGQRACIGQQFALHEATLVLGMMLKHFDFEDHTNYELDIKETLTLKPEAFVVKAKSKKIPLGGIPSPSTGQSAKKVRKKAENAHNTPLLVLYGSNMGTAEGTARDLADIAMSKGFAPQVATLDSHAGNLPREGAVLIVTASYNGHPPDNAKQFVDWLDQASADEVKGVRYSVFGCGDKNWATTYQKVPAFIDETLAAKGAENIADRGEADASDDFEGTYEEWREHMWSDVAAYFNLDIENSEDNKSTLSLQFVDSAADMPLAKMHGAFSTNVVASKELQQPGSARSTRHLEIELPKEASYQEGGHLGVIPRNYEGTVNRVTARFGLDASQQIRLEAEEEKLAHLPLAKTVSVEELLQYVELQDPVTRTQLRAMAAKTVCPPHKVELEALLEKQAYKEQVLAKRLTMLELLEKYPACEMKFSEFIALLPSIRPRYYSISSSPRVDEKQASITVSVVSGEAWSGYGEYKGIASNYLAELQEGDTITCFISTPQSEFTLPKDPETPLIMVGPGTGVAPFRGFVQARKQLKEQGQSLGEAHLYFGCRSPHEDYLYQEELENAQSEGIITLHTAFSRMPNQPKTYVQHVMEQDGKKLIELLDQGAHFYICGDGSQMAPAVEATLMKSYADVHQVSEADARLWLQQLEEKGRYAKDVWAG
modifications: Mutant P450PMO protein sequence
notes: 7-7 plus G443A and D698G; propane monooxygenase
hydroxylation products of laurate: no hydroxylation product could be detected; also recorded: no detectable amounts of hydroxylated fatty acids
